Measurements taken from US6451982 (SCHERING, dated 2002).

Assays:
[1] = target: T1, recombinant human interleukin-5 (human, UniProt P05113 20-134); assay: competition ELISA on plates coated with human IL-5; competitor biotinylated JES1-39D10
T1 sequence (looked up): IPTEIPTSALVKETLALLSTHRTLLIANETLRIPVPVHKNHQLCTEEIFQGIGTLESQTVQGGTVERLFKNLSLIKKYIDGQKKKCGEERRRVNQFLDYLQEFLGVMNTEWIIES
Method: Competition assays were carried out in which binding of the biotinylated antibody to plates coated with human IL-5 was measured in the presence of unlabelled antibody JES1-39D10 or antibody CMx5-1, CMX5-2 or CMX5-5, each of which had been purified by protein A/G affinity chromatography.
EIA plates were treated with 0.1 M NaHCO_3, pH 9.2, for 1 hour at room temperature. Human IL-5 in TBS was then added at […]. The plates were incubated overnight at 4° C. and then blocked with 3% BSA-TBS ml for 1 hour at room temperature. Fifty microliters of 2-fold serially diluted competing antibodies plus the appropriate amount of biotinylated antibody JES1-39D10 (also in a 50 μl volume) were added to each well, and the plates were incubated for 1 hour at room temperature.
The plates were then washed 5 times with TBS-Tween-20, incubated with 1 μg/ml horseradish peroxidase (HRP)-streptavidin conjugate for 1 hour at room temperature, washed 5 times with TBS-Tween-20, and developed with HRP substrate TMB. Absorbance of the samples was then measured spectrophotometrically at 450 nm.

[2] = target: T1, recombinant human interleukin-5; assay: cell-based or functional assay
[3] = target: T1, recombinant human interleukin-5; assay: inhibition of binding of 0.5 nM radiolabeled human IL-5 to IL-5 receptor alpha chains on transfected COS cells
[4] = target: T1, recombinant human interleukin-5; assay: captured antibody on plate, 125I-IL-5 binding, Scatchard analysis
Method: To determine whether the humanized antibodies retained the ability to specifically bind to human IL-5, apparent dissociation constants of antibody/antigen complexes were measured. This was done by coating enzyme immunoassay plates with mouse anti-human IgG_4-Fc (5 µg per ml, 100 ill per well) in 50 mM bicarbonate buffer, pH 9.5. The plates were then blocked at room temperature for 90 minutes with BLOTTO, washed 3 times, and incubated at 37° C. for 2 hours with one of the humanized antibodies, either purified (100 µl per well with a final concentration of 0.05 µg per ml) or in the form of conditioned medium (100 µl per well).
After the plates were washed 3 times, a dilution series of ^125I-labeled human IL-5 at concentrations between 4,000 pM and 2 pM was applied to the wells in each plate in final volumes of 100 µl. All test wells were run in triplicate. Background binding was determined by using a 1000-fold molar excess of unlablled human IL-5 in control wells. The reactions were allowed to equilibrate at room temperature for 2 hours, at which time the wells were aspirated and washed 5 times with TBST. The wells were then separated and counted in a Pharmacia LKB γ-counter. All nonspecific binding controls were run in duplicate. The values obtained for bound human IL-5 were subjected to Scatchard analysis (using RADLIG software) to obtain dissociation constant (kd) values.

| Molecule | molar ratio to biotinylated JES1-39D10 needed to produce the same degree of binding inhibition [1] [molar ratio] | IC50 (pM), inhibition of IL-5-induced CD11b expression on HL-60 cells [2] [pM] | IC50 CMX5/IC50 39D10, inhibition of IL-5-induced CD11b expression on HL-60 cells (fold against 39D10) [2] | MOLAR RATIO CMX5/IL-5, inhibition of IL-5-induced CD11b expression on HL-60 cells (molar ratio antibody:IL-5) [2] | IC50 [3] [nM] | IC50 CMX5/IC50 39D10, inhibition of IL-5-induced CD11b expression on HL-60 cells [2] [fold against 39D10] | MOLAR RATIO CMX5/IL-5, inhibition of IL-5-induced CD11b expression on HL-60 cells [2] | binding result [4] |
| --- | --- | --- | --- | --- | --- | --- | --- | --- |
| monoclonal antibody JES1-39D10 | 1 | 166 | 1 | 0.83 | 0.15 to 0.55 | – | – | – |
| humanized antibody CMX5-2 (antibody, V domains shown) VH: QVKLVQAGGGVVQPGRSLRLSCIASGFTFSSNSVNWIRQAPGKGLEWVALIWSNGDTDYNSAIKSRFTISRDNSKSTLYMQMNSLRTEDTAVYFCAREYYGYFDYWGQGVLVTVSS VL: DIQMTQSPSSLSVSVGDRVTITCLASEGISSYLAWYQQKPGLAPKLLIYGANSLQTGVPSRFSGSGSATDFTLTISSLQPEDIATYYCQQSYKFPNTFGQGTKVDVKR | ~1.4 | 467 | – | – | 0.35 to 0.7 | 2.8 | 2.3 molar ratio antibody:IL-5 | – |
| humanized antibody CMX5-3 (antibody, V domains shown, VH LAY maximal, VL LAY maximal) VH: EVQLLESGGGLVQPGGSLRLSCAVSGLSLTSNSVNWIRQAPGKGLEWVALIWSNGDTDYNSAIKSRFTISRNDSKNTLYLQMNGLQAEVSAIYFCAREYYGYFDYWGQGTLVTVSS VL: DIQMTQSPSSLSVSVGDRVTITCLASEGISSYLAWYQQKPGLAPKLLIYGANSLQTGVPSRFSGSGSATDFTLTISSLQPEDIATYYCQQSYKFPNTFGQGTKVDVKR | – | – | – | – | – | – | – | binds |
| humanized antibody CMX5-4 (antibody, V domains shown, VH HIL minimal, VL LAY minimal) VH: QVKLVQAGGGVVQPGRSLRLSCIASGLSLTSNGMHWVRQAPGKGLEWVAVIWSNGSRTYYGDSVKGRFTISRDNSKRTLYMQMNSLRTEDTAVYYCAREYYGYFDYWGQGVLVTVSS VL: DIQMTQSPSSLSVSVGDRVTITCQASEGISSYLNWYQQKPGLAPKLLIYGANTREAGVPSRFSGSGSGTDFTLTISSLQPEDIATYYCQQSYKFPNTFGQGTKVDVKR | – | – | – | – | – | – | – | no binding |
| humanized antibody CMX5-5 (antibody, V domains shown, Kabat CDRs only on HIL VH and LAY VL) VH: QVKLVQAGGGVVQPGRSLRLSCIASGFTFSSNSVNWVRQAPGKGLEWVALIWSNGDTDYNSAIKSRFTISRDNSKRTLYMQMNSLRTEDTAVYYCAREYYGYFDYWGQGVLVTVSS VL: DIQMTQSPSSLSVSVGDRVTITCLASEGISSYLAWYQQKPGLAPKLLIYGANSLQTGVPSRFSGSGSGTDFTFTISSLQPEDIATYYCQQSYKFPNTFGQGTKVDVKR | ~1.4 | 800 | – | – | 0.5 to 1.1 | 4.8 | 4 molar ratio antibody:IL-5 | – |
| humanized antibody CMX5-1 (antibody, V domains shown, VH HIL maximal, VL LAY maximal; also called CMX1; antibody from clone CJA25) VH: QVKLVQAGGGVVQPGRSLRLSCIVSGLSLTSNSVNWIRQAPGKGLEWVALIWSNGDTDYNSAIKSRFTISRDNSKSTLYMQMNSLRTEDTAVYFCAREYYGYFDYWGQGVLVTVSS VL: DIQMTQSPSSLSVSVGDRVTITCLASEGISSYLAWYQQKPGLAPLLLIYGANSLQTGVPSRFSGSGSATDFTLTISSLQPEDIATYYCQQSYKFPNTFGQGTKVDVKR | ~3.3 | 1470 | – | – | 1.5 to 3 | 8.8 | 7.3 molar ratio antibody:IL-5 | – |
